Laboratory results as given in publication PMC8034659.

Key:
Assay in all cases: SPR
TrfA K165E = target: T1, TrfA K165E (plasmid RK2, UniProt P07676 98-382, K165E;G254D;S267L)
T1 sequence: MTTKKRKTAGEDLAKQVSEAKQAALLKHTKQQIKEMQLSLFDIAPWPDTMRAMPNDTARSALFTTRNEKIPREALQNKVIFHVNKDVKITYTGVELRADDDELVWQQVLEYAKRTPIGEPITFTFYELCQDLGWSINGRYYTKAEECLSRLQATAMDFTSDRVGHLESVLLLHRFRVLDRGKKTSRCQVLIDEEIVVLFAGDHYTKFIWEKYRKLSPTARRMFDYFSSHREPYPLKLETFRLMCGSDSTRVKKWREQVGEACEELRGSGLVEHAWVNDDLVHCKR

[1] = target: T2, TrfA wt (G254D/S267L, 33 kDa) (plasmid RK2, UniProt P07676 98-382, G254D;S267L)
T2 sequence: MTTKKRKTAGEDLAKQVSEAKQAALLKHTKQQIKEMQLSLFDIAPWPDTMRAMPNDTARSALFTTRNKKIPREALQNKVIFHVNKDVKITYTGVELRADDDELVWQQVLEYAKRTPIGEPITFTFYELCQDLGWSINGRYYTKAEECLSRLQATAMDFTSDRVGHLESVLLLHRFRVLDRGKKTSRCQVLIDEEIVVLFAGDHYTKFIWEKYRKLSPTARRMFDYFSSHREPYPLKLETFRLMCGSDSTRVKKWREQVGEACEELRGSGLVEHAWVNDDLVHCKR

TrfA R347E = target: T3, TrfA R347E (plasmid RK2, UniProt P07676 98-382, G254D;S267L;R347E)
T3 sequence: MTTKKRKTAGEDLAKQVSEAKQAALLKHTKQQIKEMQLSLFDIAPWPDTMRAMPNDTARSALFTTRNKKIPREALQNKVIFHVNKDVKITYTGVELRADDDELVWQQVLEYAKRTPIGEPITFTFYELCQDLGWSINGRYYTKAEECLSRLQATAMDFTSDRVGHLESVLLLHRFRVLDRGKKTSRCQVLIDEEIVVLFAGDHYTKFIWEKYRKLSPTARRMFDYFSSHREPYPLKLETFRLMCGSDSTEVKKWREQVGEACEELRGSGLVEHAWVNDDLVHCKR

TrfA A171T = target: T4, TrfA A171T (plasmid RK2, UniProt P07676 98-382, A171T;G254D;S267L)
T4 sequence: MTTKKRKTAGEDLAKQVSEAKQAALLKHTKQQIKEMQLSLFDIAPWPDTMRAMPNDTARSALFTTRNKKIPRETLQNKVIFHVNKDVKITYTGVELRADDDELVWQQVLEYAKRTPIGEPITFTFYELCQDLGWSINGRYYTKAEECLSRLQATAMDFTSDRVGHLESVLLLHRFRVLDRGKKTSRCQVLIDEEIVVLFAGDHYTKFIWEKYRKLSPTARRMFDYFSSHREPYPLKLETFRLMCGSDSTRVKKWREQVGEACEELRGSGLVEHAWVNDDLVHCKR

B1: five RK2 iterons (ItT/ItB) (dsDNA)
DNA 1: CCTGCGGTATTGACACTTGAGGGGCGCGACTACTGACAGATGAGGGGCGCGATCCTTGACACTTGAGGGGCAGAGTGATGACAGATGAGGGGCGCACCTATTGACATTTGAGGGGCTGTCCACAGGCAG
DNA 2: CTGCCTGTGGACAGCCCCTCAAATGTCAATAGGTGCGCCCCTCATCTGTCATCACTCTGCCCCTCAAGTGTCAAGGATCGCGCCCCTCATCTGTCAGTAGTCGCGCCCCTCAAGTGTCAATACCGCAGG
Does B1 bind (TrfA K165E)?
Result: no binding

Does B1 bind [1]?
Result: binds

Does B1 bind (TrfA R347E)?
Result: no binding

Does B1 bind (TrfA A171T)?
Result: binds
